{"source": "paper PMC5672955", "origin": "cited, not measured here", "biological_target": "RNA polymerase (Escherichia coli) (UniProt P0A7Z4)"}
{"substance": "UvrD (from UniProt P03018)", "values": [{"measurement": "Kd", "value": 35, "unit": "nM"}]}
